± gives the standard deviation of the averaged measurements.
Assay: total protein half-life in vivo (active degradation + dilution); higher = more stable protein
[1] = E. coli NCM3722 delta-clpP delta-lon delta-hslV, growth: N-lim chemostat, doubling time 6 h
[2] = E. coli NCM3722 delta-lon, growth: N-lim chemostat, doubling time 6 h
[3] = E. coli NCM3722 delta-smpB, growth: N-lim chemostat, doubling time 6 h
[4] = wild type E. coli NCM3722, growth: C-lim chemostat, doubling time 3 h
[5] = wild type E. coli NCM3722, growth: C-lim chemostat, doubling time 6 h
[6] = wild type E. coli NCM3722, growth: C-lim chemostat, doubling time 12 h
[7] = wild type E. coli NCM3722, growth: N-lim chemostat, doubling time 6 h
[8] = wild type E. coli NCM3722, growth: N-lim chemostat, doubling time 12 h
[9] = wild type E. coli NCM3722, growth: P-lim chemostat, doubling time 6 h
[10] = wild type E. coli NCM3722, growth: P-lim chemostat, doubling time 12 h
[11] = E. coli NCM3722 delta-clpP, growth: N-lim chemostat, doubling time 6 h
[12] = E. coli NCM3722 delta-hslV, growth: N-lim chemostat, doubling time 6 h

Sequence	total protein half-life in vivo [1]	total protein half-life in vivo [2]	total protein half-life in vivo [3]	total protein half-life in vivo [4]	total protein half-life in vivo [5]	total protein half-life in vivo [6]	total protein half-life in vivo [7]	total protein half-life in vivo [8]	total protein half-life in vivo [9]	total protein half-life in vivo [10]	total protein half-life in vivo [11]	total protein half-life in vivo [12]
MIIIRYLVRETLKSQLAILFILLLIFFCQKLVRILGAAVDGDIPANLVLSLLGLGVPEMAQLILPLSLFLGLLMTLGKLYTESEITVMHACGLSKAVLVKAAMILAVFTAIVAAVNVMWAGPWSSRHQDEVLAEAKANPGMAALAQGQFQQATNGSSVLFIESVDGSDFKDVFLAQIRPKGNARPSVVVADSGHLTQLRDGSQVVTLNQGTRFEGTALLRDFRITDFQDYQAIIGHQAVALDPNDTDQMDMRTLWNTDTDRARAELNWRITLVFTVFMMALMVVPLSVVNPRQGRVLSMLPAMLLYLLFFLIQTSLKSNGGKGKLDPTLWMWTVNLIYLALAIVLNLWDTVPVRRLRASFSRKGAV [P0AF98]	6.78 ± 0.092 h	6.05 ± 0.35 h	6.02 ± 0.49 h	3.17 ± 0.17 h	5.94 ± 0.35 h	10.4 h	5.9587 ± 0.0048 h	12.6 ± 0.32 h	6.85 ± 0.98 h	12.6 ± 0.65 h		
MLPSQSPAIFTVSRLNQTVRLLLEHEMGQVWISGEISNFTQPASGHWYFTLKDDTAQVRCAMFRNSNRRVTFRPQHGQQVLVRANITLYEPRGDYQIIVESMQPAGEGLLQQKYEQLKAKLQAEGLFDQQYKKPLPSPAHCVGVITSKTGAALHDILHVLKRRDPSLPVIIYPAAVQGDDAPGQIVRAIELANQRNECDVLIVGRGGGSLEDLWSFNDERVARAIFTSRIPVVSAVGHETDVTIADFVADLRAPTPSAAAEVVSRNQQELLRQVQSTRQRLEMAMDYYLANRTRRFTQIHHRLQQQHPQLRLARQQTMLERLQKRMSFALENQLKRTGQQQQRLTQRLNQQNPQPKIHRAQTRIQQLEYRLAETLRAQLSATRERFGNAVTHLEAVSPLSTLARGYSVTTATDGNVLKKVKQVKAGEMLTTRLEDGWIESEVKNIQPVKKSRKKVH	6.078 ± 0.013 h	5.98 ± 0.4 h	5.71 ± 0.13 h	3.32 ± 0.21 h	6.11 ± 0.37 h	11.39 ± 0.059 h	5.89 ± 0.5 h	12.33 ± 0.035 h	6.05 ± 0.67 h	13.1 ± 2.8 h	5.772 ± 0.023 h	6.48 ± 0.87 h
MQENSPLLQLQNVGYLAGDAKILNNINFSLRAGEFKLITGPSGCGKSTLLKIVASLISPTSGTLLFEGEDVSTLKPEIYRQQVSYCAQTPTLFGDTVYDNLIFPWQIRNRQPDPAIFLDFLERFALPDSILTKNIAELSGGEKQRISLIRNLQFMPKVLLLDEITSALDESNKHNVNEMIHRYVREQNIAVLWVTHDKDEINHADKVITLQPHAGEMQEARYELA	5.05 ± 0.21 h	4.59 ± 0.41 h	6.21 ± 1.8 h	2.7 ± 0.38 h	6.58 ± 0.68 h	9.76 h	5.2 ± 0.14 h	9.23 ± 0.8 h	5.43 ± 0.2 h	11.7 ± 1.6 h	5 ± 0.8 h	5.16 ± 0.41 h
MSDNDTIVAQATPPGRGGVGILRISGFKAREVAETVLGKLPKPRYADYLPFKDADGSVLDQGIALWFPGPNSFTGEDVLELQGHGGPVILDLLLKRILTIPGLRIARPGEFSERAFLNDKLDLAQAEAIADLIDASSEQAARSALNSLQGAFSARVNHLVEALTHLRIYVEAAIDFPDEEIDFLSDGKIEAQLNDVIADLDAVRAEARQGSLLREGMKVVIAGRPNAGKSSLLNALAGREAAIVTDIAGTTRDVLREHIHIDGMPLHIIDTAGLREASDEVERIGIERAWQEIEQADRVLFMVDGTTTDAVDPAEIWPEFIARLPAKLPITVVRNKADITGETLGMSEVNGHALIRLSARTGEGVDVLRNHLKQSMGFDTNMEGGFLARRRHLQALEQAAEHLQQGKAQLLGAWAGELLAEELRLAQQNLSEITGEFTSDDLLGRIFSSFCIGK	5.13 ± 0.69 h	5.72 ± 0.4 h	4.68 ± 0.25 h	3.43 ± 0.63 h	5.46 ± 0.16 h	10.2 ± 5 h	5.14 ± 0.12 h	8.32 ± 0.99 h	5.69 ± 0.32 h	11.7 ± 0.24 h	5.57 ± 0.62 h	4.91 ± 0.24 h
MQTEHVILLNAQGVPTGTLEKYAAHTADTRLHLAFSSWLFNAKGQLLVTRRALSKKAWPGVWTNSVCGHPQLGESNEDAVIRRCRYELGVEITPPESIYPDFRYRATDPSGIVENEVCPVFAARTTSALQINDDEVMDYQWCDLADVLHGIDATPWAFSPWMVMQATNREARKRLSAFTQLK	4.63 ± 0.67 h	4.68 ± 0.56 h	4.42 ± 0.16 h	3.09 ± 0.08 h	6.016 ± 0.044 h	8.96 ± 0.18 h	4.39 h	7.89 h	5.61 h	13.1 ± 1.7 h	4.86 ± 0.81 h	4.79 ± 0.39 h
MTDLTAQEPAWQTRDHLDDPVIGELRNRFGPDAFTVQATRTGVPVVWIKREQLLEVGDFLKKLPKPYVMLFDLHGMDERLRTHREGLPAADFSVFYHLISIDRNRDIMLKVALAENDLHVPTFTKLFPNANWYERETWDLFGITFDGHPNLRRIMMPQTWKGHPLRKDYPARATEFSPFELTKAKQDLEMEALTFKPEEWGMKRGTENEDFMFLNLGPNHPSAHGAFRIVLQLDGEEIVDCVPDIGYHHRGAEKMGERQSWHSYIPYTDRIEYLGGCVNEMPYVLAVEKLAGITVPDRVNVIRVMLSELFRINSHLLYISTFIQDVGAMTPVFFAFTDRQKIYDLVEAITGFRMHPAWFRIGGVAHDLPRGWDRLLREFLDWMPKRLASYEKAALQNTILKGRSQGVAAYGAKEALEWGTTGAGLRATGIDFDVRKARPYSGYENFDFEIPVGGGVSDCYTRVMLKVEELRQSLRILEQCLNNMPEGPFKADHPLTTPPPKERTLQHIETLITHFLQVSWGPVMPANESFQMIEATKGINSYYLTSDGSTMSYRTRVRTPSFAHLQQIPAAIRGSLVSDLIVYLGSIDFVMSDVDR	6.01 ± 0.11 h	6.39 ± 0.17 h	6.2 ± 0.22 h	3.32 ± 0.17 h	6.15 ± 0.1 h	11.43 ± 0.014 h	6.33 ± 0.14 h	12.22 ± 0.12 h	6.224 ± 0.032 h	11.84 ± 0.096 h	7.18 ± 1.1 h	5.883 ± 0.042 h
MKQATRKPTTPGDILLYEYLEPLDLKINELAELLHVHRNSVSALINNNRKLTTEMAFRLAKVFDTTVDFWLNLQAAVDLWEVENNMRTQEELGRIETVAEYLARREERAKKVA [P0A9T6]	5.02 ± 0.066 h	0.94 h	0.895 ± 0.037 h	0.871 ± 0.018 h	0.977 ± 0.032 h	1.53 h	1.08 h	1.08 h	0.994 ± 0.08 h	1.7 ± 0.7 h	3.95 ± 0.23 h	0.853 h
